The source of these data is patent US20200291112A1 (Memorial Sloan Kettering, published 2020).

Assay [1] addresses T1, Human GPA33 (Novoprotein), recombinant protein immobilized on CM5 chips (human, UniProt Q99795 22-235).
T1 construct: also called GPA33 recombinant protein; Human Glycoprotein A33
T1 sequence: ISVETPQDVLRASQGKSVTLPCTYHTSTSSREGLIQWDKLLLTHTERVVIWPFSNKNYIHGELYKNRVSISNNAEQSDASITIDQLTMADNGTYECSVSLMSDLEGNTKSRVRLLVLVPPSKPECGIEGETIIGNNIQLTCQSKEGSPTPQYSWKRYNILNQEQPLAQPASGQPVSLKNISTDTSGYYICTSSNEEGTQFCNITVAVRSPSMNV
Kind of assay: SPR (Biacore T100), GPA33 recombinant protein immobilized on CM5 chip, IgG1 flowed over, 25 °C, 1:1 binding model. How it is done:
(§1) SPR analysis. Human GPA33 (Novoprotein, Summit, N.J.) was immobilized on CM5 chips. Five concentrations of 2-fold serially diluted huA33 IgG1 or huA33-BsAbs (starting at 20 nM) were flowed over the chip using a Biacore™ T100 system (GE Healthcare, Chicago, Ill.). Binding kinetics of huA33 were measured at 25° C. and binding kinetics of huA33-BsAbs were measured at both 25° C. and 37° C. The sensorgrams were fitted with 1:1 binding model for both to derive kinetic parameters.

Assay [2] has as its target T1, Human GPA33 (Novoprotein), recombinant …. Kind of assay: SPR, KD of the parental huA33-BsAb over KD of the clone. Here is the method: as §1
Assay [3] shares this target. In words: SPR, GPA33 immobilized on CM5 chip, clone in huA33-BsAb format; temperature not given for this table; the KD column head prints no unit. (In general: In SPR one partner is held on a chip, and binding of the other changes the refractive index at the surface.)

B1: chimeric chA33-IgG1 (antibody, V domains shown)
VH: EVKLVESGGGLVKPGGSLKLSCAASGFAFSTYDMSWVRQTPEKRLEWVATISSGGSYTYYLDSVKGRFTISRDSARNTLYLQMSSLRSEDTALYYCAPTTVVPFAYWGQGTLVTVSA
VL: DIVMTQSQKFMSTSVGDRVSITCKASQNVRTVVAWYQQKPGQSPKTLIYLASNRHTGVPDRFTGSGSGTDFTLTISNVQSEDLADYFCLQHWSYPLTFGSGTKLEVKR
notes: Chimeric antibody with murine A33 variable domains and a human IgG1 constant region; also called chimeric A33; 3A3-chA33
As to B1, in assay [1], the Kd – broadly, a measure of binding affinity in units of concentration – worked out at 0.31 nM; the koff (in general, the first-order rate constant of dissociation) came to 0.000628 s⁻¹; the kon (in general, a measure of how fast the partners come together) amounted to 2.03e+06 M⁻¹ s⁻¹.

B2: affinity-matured clone 31 in huA33-BsAb format (bispecific antibody, human IgG1, kappa, N297A)
heavy: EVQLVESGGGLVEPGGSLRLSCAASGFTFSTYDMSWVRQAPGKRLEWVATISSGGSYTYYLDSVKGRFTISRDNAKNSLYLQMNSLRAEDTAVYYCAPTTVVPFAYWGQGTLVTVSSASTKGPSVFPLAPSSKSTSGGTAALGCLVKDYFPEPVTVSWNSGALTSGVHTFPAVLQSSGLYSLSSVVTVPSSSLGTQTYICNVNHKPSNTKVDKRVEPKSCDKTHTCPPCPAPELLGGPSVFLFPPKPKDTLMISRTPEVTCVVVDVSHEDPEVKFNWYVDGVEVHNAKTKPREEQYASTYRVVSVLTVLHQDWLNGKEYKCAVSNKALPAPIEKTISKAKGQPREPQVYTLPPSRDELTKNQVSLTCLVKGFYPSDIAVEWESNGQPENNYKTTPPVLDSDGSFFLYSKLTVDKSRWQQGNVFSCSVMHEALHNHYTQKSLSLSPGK
light: DIQMTQSQSSLSTSVGDRVTITCKASQNVRTVVAWYQQKPGKSPKTLIYLASNRHTGVPSRFSGSGSGTEFTLTISNVQPEDFADYFCLQHWSYPLTFGSGTKLEIKRTVAAPSVFIFPPSDEQLKSGTASVVCLLNNFYPREAKVQWKVDNALQSGNSQESVTEQDSKDSTYSLSSTLTLSKADYEKHKVYACEVTHQGLSSPVTKSFNRGECTSGGGGSGGGGSGGGGSQVQLVQSGGGVVQPGRSLRLSCKASGYTFTRYTMHWVRQAPGKCLEWIGYINPSRGYTNYNQKFKDRFTISRDNSKNTAFLQMDSLRPEDTGVYFCARYYDDHYSLDYWGQGTPVTVSSGGGGSGGGGSGGGGSGGGGSGGGGSGGGGSDIQMTQSPSSLSASVGDRVTITCSASSSVSYMNWYQQTPGKAPKRWIYDTSKLASGVPSRFSGSGSGTDYTFTISSLQPEDIATYYCQQWSSNPFTFGCGTKLQITR
Turning to B2, the “Fold difference/Parental” value in assay [2] was found to be 4.3 fold. Besides, the dissociation constant (Kd) in assay [3] came out at 0.0387 nM.

B3: affinity-matured clone 49 in huA33-BsAb format (bispecific antibody, human IgG1, kappa, N297A)
heavy: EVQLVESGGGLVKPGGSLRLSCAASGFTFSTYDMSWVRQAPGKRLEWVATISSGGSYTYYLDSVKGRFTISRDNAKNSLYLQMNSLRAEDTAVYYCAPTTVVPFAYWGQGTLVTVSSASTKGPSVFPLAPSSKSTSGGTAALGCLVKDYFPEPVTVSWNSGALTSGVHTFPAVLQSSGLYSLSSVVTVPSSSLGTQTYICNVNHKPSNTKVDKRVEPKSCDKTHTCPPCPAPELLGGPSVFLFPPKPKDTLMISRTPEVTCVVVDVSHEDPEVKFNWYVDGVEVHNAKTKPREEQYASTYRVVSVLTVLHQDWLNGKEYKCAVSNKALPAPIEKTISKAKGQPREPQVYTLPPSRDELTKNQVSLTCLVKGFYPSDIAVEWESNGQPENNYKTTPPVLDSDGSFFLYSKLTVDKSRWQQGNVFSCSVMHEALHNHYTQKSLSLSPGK
light: DIQMTQSQSSLSTSVGDRVTITCKASQNVRTLVAWYQQKPGKSPKTLIYLASNRHTGVPSRFSGSGSGTEFTLTISNVQPEDFADYFCLQHWSYPLTFGSGTKLEIKRTVAAPSVFIFPPSDEQLKSGTASVVCLLNNFYPREAKVQWKVDNALQSGNSQESVTEQDSKDSTYSLSSTLTLSKADYEKHKVYACEVTHQGLSSPVTKSFNRGECTSGGGGSGGGGSGGGGSQVQLVQSGGGVVQPGRSLRLSCKASGYTFTRYTMHWVRQAPGKCLEWIGYINPSRGYTNYNQKFKDRFTISRDNSKNTAFLQMDSLRPEDTGVYFCARYYDDHYSLDYWGQGTPVTVSSGGGGSGGGGSGGGGSGGGGSGGGGSGGGGSDIQMTQSPSSLSASVGDRVTITCSASSSVSYMNWYQQTPGKAPKRWIYDTSKLASGVPSRFSGSGSGTDYTFTISSLQPEDIATYYCQQWSSNPFTFGCGTKLQITR
On to B3, for which, in assay [2], the “Fold difference/Parental” value was 7.6 fold. The Kd in assay [3] worked out at 0.022 nM.

B4: affinity-matured clone 32 in huA33-BsAb format (bispecific antibody, human IgG1, kappa, N297A)
heavy: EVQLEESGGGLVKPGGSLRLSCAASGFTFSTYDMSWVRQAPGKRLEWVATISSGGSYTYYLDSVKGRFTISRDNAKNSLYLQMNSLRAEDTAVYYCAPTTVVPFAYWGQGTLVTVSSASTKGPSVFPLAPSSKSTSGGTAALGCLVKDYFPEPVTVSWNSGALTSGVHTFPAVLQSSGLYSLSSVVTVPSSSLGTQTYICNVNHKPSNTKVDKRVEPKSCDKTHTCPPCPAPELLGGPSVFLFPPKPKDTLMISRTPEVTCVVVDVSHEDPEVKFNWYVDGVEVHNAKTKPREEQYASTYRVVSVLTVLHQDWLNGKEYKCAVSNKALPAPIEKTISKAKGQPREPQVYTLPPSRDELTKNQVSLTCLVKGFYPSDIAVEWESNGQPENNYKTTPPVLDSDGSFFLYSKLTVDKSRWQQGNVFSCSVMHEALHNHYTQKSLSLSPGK
light: DIQMTQSQSSLSTSVGDRVTITCKASQNVRTVVAWYQQKPGKSPKTLIYLASNRHTGVPSRFSGSGSGTEFTLTISNVQPEDFADYFCLQYWSYPLTFGSGTKLEIKRTVAAPSVFIFPPSDEQLKSGTASVVCLLNNFYPREAKVQWKVDNALQSGNSQESVTEQDSKDSTYSLSSTLTLSKADYEKHKVYACEVTHQGLSSPVTKSFNRGECTSGGGGSGGGGSGGGGSQVQLVQSGGGVVQPGRSLRLSCKASGYTFTRYTMHWVRQAPGKCLEWIGYINPSRGYTNYNQKFKDRFTISRDNSKNTAFLQMDSLRPEDTGVYFCARYYDDHYSLDYWGQGTPVTVSSGGGGSGGGGSGGGGSGGGGSGGGGSGGGGSDIQMTQSPSSLSASVGDRVTITCSASSSVSYMNWYQQTPGKAPKRWIYDTSKLASGVPSRFSGSGSGTDYTFTISSLQPEDIATYYCQQWSSNPFTFGCGTKLQITR
Turning to B4, the “Fold difference/Parental” value in assay [2] came to 29.7 fold. Further, the Kd in assay [3] worked out at 0.00564 nM.

B5: affinity-matured clone 56 in huA33-BsAb format (bispecific antibody, human IgG1, kappa, N297A)
heavy: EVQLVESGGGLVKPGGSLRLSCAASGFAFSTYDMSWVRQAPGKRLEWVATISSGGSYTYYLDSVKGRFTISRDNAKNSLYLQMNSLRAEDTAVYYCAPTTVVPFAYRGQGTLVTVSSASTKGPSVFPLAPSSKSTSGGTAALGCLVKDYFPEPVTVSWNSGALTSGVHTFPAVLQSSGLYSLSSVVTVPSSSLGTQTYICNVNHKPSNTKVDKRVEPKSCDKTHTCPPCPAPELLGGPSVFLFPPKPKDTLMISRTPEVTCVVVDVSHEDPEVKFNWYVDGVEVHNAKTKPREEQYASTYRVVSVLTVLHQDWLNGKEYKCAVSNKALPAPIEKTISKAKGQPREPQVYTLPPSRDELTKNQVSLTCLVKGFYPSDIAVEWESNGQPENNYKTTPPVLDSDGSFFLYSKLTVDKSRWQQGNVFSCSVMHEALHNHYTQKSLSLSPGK
light: DIQMTQSQSSLSTSVGDRVTITCKASQNVRTLVAWYQQKPGKSPKTLIYLASNRHTGVPSRFSGSGSGTEFTLTISNVQPEDFADYFCLQYWSYPLTFGSGTKLEIKRTVAAPSVFIFPPSDEQLKSGTASVVCLLNNFYPREAKVQWKVDNALQSGNSQESVTEQDSKDSTYSLSSTLTLSKADYEKHKVYACEVTHQGLSSPVTKSFNRGECTSGGGGSGGGGSGGGGSQVQLVQSGGGVVQPGRSLRLSCKASGYTFTRYTMHWVRQAPGKCLEWIGYINPSRGYTNYNQKFKDRFTISRDNSKNTAFLQMDSLRPEDTGVYFCARYYDDHYSLDYWGQGTPVTVSSGGGGSGGGGSGGGGSGGGGSGGGGSGGGGSDIQMTQSPSSLSASVGDRVTITCSASSSVSYMNWYQQTPGKAPKRWIYDTSKLASGVPSRFSGSGSGTDYTFTISSLQPEDIATYYCQQWSSNPFTFGCGTKLQITR
On to B5, for which the “Fold difference/Parental” value in assay [2] was 6.9 fold. Besides, the Kd in assay [3] was 0.0243 nM.

B6: affinity-matured clone 53 in huA33-BsAb format (bispecific antibody, human IgG1, kappa, N297A)
heavy: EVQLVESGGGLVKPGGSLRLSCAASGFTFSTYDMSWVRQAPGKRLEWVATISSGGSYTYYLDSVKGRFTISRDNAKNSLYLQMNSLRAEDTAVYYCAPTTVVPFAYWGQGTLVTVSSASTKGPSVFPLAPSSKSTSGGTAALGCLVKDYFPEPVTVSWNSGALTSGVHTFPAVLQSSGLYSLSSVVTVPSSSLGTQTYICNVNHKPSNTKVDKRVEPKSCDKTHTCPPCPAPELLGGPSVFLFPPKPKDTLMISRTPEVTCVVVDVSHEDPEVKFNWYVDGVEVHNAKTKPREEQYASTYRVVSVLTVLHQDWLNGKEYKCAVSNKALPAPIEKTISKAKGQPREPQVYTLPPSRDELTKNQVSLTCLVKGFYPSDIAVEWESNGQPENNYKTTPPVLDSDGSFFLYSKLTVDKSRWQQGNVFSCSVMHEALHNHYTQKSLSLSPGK
light: DIQMTQSQSSLSTSVGDRVTITCKASQNVRTVVAWYQQKPGKSPKTLIYLASNRHTGVPSRFSGSGSGTEFTLTISNVQPEDFADYFCLQYWSYPLTFGSGTKLEIKRTVAAPSVFIFPPSDEQLKSGTASVVCLLNNFYPREAKVQWKVDNALQSGNSQESVTEQDSKDSTYSLSSTLTLSKADYEKHKVYACEVTHQGLSSPVTKSFNRGECTSGGGGSGGGGSGGGGSQVQLVQSGGGVVQPGRSLRLSCKASGYTFTRYTMHWVRQAPGKCLEWIGYINPSRGYTNYNQKFKDRFTISRDNSKNTAFLQMDSLRPEDTGVYFCARYYDDHYSLDYWGQGTPVTVSSGGGGSGGGGSGGGGSGGGGSGGGGSGGGGSDIQMTQSPSSLSASVGDRVTITCSASSSVSYMNWYQQTPGKAPKRWIYDTSKLASGVPSRFSGSGSGTDYTFTISSLQPEDIATYYCQQWSSNPFTFGCGTKLQITR
Consider B6, for which, in assay [2], the “Fold difference/Parental” value was found to be 9.6 fold. The Kd in assay [3] came out at 0.0175 nM.

B7: affinity-matured clone 48 in huA33-BsAb format (bispecific antibody, human IgG1, kappa, N297A)
heavy: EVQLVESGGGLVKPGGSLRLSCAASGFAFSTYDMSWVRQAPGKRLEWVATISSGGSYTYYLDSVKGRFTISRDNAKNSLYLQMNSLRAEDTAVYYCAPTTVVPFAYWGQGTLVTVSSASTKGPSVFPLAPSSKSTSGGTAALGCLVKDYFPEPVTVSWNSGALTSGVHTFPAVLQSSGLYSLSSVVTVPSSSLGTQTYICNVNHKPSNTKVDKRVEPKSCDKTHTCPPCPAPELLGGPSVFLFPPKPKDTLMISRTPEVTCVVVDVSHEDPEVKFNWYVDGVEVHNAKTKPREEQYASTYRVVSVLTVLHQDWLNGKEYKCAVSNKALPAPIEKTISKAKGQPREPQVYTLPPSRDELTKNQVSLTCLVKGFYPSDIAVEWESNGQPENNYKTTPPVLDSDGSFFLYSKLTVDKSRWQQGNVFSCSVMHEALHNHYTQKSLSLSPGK
light: DIQMTQSQSSLSTSVGDRVTITCKASQNVRTVVAWYQQKPGKSPKTLIYLASDRHTGVPSRFSGSGSGTEFTLTISNVQPEDFADYFCLQYWSYPLTFGSGTKLEIKRTVAAPSVFIFPPSDEQLKSGTASVVCLLNNFYPREAKVQWKVDNALQSGNSQESVTEQDSKDSTYSLSSTLTLSKADYEKHKVYACEVTHQGLSSPVTKSFNRGECTSGGGGSGGGGSGGGGSQVQLVQSGGGVVQPGRSLRLSCKASGYTFTRYTMHWVRQAPGKCLEWIGYINPSRGYTNYNQKFKDRFTISRDNSKNTAFLQMDSLRPEDTGVYFCARYYDDHYSLDYWGQGTPVTVSSGGGGSGGGGSGGGGSGGGGSGGGGSGGGGSDIQMTQSPSSLSASVGDRVTITCSASSSVSYMNWYQQTPGKAPKRWIYDTSKLASGVPSRFSGSGSGTDYTFTISSLQPEDIATYYCQQWSSNPFTFGCGTKLQITR
Turning to B7, in assay [2], the “Fold difference/Parental” value amounted to 51 fold. Also, the Kd in assay [3] was determined as 0.00329 nM.

B8: affinity-matured clone 57 in huA33-BsAb format (bispecific antibody, human IgG1, kappa, N297A)
heavy: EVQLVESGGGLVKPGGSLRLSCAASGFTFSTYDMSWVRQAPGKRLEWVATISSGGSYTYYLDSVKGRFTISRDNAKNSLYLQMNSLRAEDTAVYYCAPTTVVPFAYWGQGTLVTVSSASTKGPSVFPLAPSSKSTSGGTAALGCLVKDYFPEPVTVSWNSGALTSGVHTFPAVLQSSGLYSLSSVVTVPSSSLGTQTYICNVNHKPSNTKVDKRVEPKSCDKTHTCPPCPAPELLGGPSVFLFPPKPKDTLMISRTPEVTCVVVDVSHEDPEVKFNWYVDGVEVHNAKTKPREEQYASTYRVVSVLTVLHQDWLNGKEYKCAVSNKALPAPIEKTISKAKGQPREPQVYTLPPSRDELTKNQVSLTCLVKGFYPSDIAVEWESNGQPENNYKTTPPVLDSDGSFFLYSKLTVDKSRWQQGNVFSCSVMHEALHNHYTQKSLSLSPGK
light: DIQMTQSQSSLSTSVGDSVTITCKASQNVRTVVAWYQQKPGKSPKTLIYLASNRHTGVPSRFSGSGSGTEFTLTISNVQPEDVADYFCLQYWSYPLTFGSGTKLEIKRTVAAPSVFIFPPSDEQLKSGTASVVCLLNNFYPREAKVQWKVDNALQSGNSQESVTEQDSKDSTYSLSSTLTLSKADYEKHKVYACEVTHQGLSSPVTKSFNRGECTSGGGGSGGGGSGGGGSQVQLVQSGGGVVQPGRSLRLSCKASGYTFTRYTMHWVRQAPGKCLEWIGYINPSRGYTNYNQKFKDRFTISRDNSKNTAFLQMDSLRPEDTGVYFCARYYDDHYSLDYWGQGTPVTVSSGGGGSGGGGSGGGGSGGGGSGGGGSGGGGSDIQMTQSPSSLSASVGDRVTITCSASSSVSYMNWYQQTPGKAPKRWIYDTSKLASGVPSRFSGSGSGTDYTFTISSLQPEDIATYYCQQWSSNPFTFGCGTKLQITR
B8: the “Fold difference/Parental” value in assay [2] worked out at 10.7 fold. The Kd in assay [3] came to 0.0156 nM.
